Literature values, collected in article PMC11962798.

Biological target: Spike protein RBD (SARS-CoV-2) (UniProt P0DTC2)

In the case of Bamlanivimab, the Kd is listed as 1.5 nM.
